The target in this assay is SUMO-SRCAP_(521-569) (human). Briefly: ITC. (Isothermal titration calorimetry measures the heat released or taken up as one component is titrated into another.)

The term Kd denotes a measure of binding affinity in units of concentration.

Sequence of SUMO-SRCAP_(521-569) (human) (Q6ZRS2 521-569): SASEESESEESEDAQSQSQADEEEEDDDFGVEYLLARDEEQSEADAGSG

In turn, “H2A.Z/H2B dimer, wild type (from UniProt P0C0S5 1-128; P06899 1-126) (complex)” gave a Kd of 0.256 µM.
